Measurements published in the supplement of paper PMC7125110.
± gives the standard error. This sample holds only a part of the variants without activity.

B1: glmS ribozyme (parent)
chain: AUAAAAGCGCCAGAACUACAGAAAUGUAGUUGACGAGGAGGAGGUUUAUCGAAUUUUCGGCGGAUGCCUCCAAA

Key:
Conditions in all cases: with glucosamine-6-phosphate
[1] = variants of: B1; test: self-cleavage kobs at 40 uM GlcN6P; higher = faster cleavage; RNA array
Method in brief: (§1)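 Glucosamine-6-phosphate in HEPES/KCl/Mg(OAc)2 buffer, at 40 μM to 10 mM, was flowed over barcoded ribozyme variants transcribed in situ by E. coli RNA polymerase on sequenced MiSeq chips. Tracking was through a hybridised Cy3 probe at 37 °C. kobs, kcat and KM came from exponential decay fits and weighted Michaelis–Menten fits of normalised per-tile medians.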

[2] = variants of: B1; test: self-cleavage kobs at 160 uM GlcN6P; higher = faster cleavage; RNA array
Method in brief: as §1

[3] = variants of: B1; test: self-cleavage kobs at 640 uM GlcN6P; higher = faster cleavage; RNA array
Method in brief: as §1

[4] = variants of: B1; test: self-cleavage kobs at 2500 uM GlcN6P; higher = faster cleavage; RNA array
Method in brief: as §1

[5] = variants of: B1; test: self-cleavage kobs at 10000 uM GlcN6P; higher = faster cleavage; RNA array
Method in brief: as §1

Row | Variant | self-cleavage kobs at 40 uM GlcN6P [1] [s⁻¹] | self-cleavage kobs at 160 uM GlcN6P [2] [s⁻¹] | self-cleavage kobs at 640 uM GlcN6P [3] [s⁻¹] | self-cleavage kobs at 2500 uM GlcN6P [4] [s⁻¹] | self-cleavage kobs at 10000 uM GlcN6P [5] [s⁻¹]
1 | AUAAAAGCGCCAGAACUACAGAAAUGUAGUUGACGAGGAGGAGGUUUAUCGAAUUUUCGGCGGACGCCUACAAA [U65C C70A] | < 1e-05 | < 1e-05 | – | – | –
2 | AUAAAUGCGCCAGAACUACAGAAAUGUAGUUGACGAGGAGGUGGUUUAUCGAAUUUUCGGGGGAUGCCUCCAAA [A6U A42U C61G] | – | < 1e-05 | – | – | –
3 | AUAAAGGGGCCAGAACUACAGAAAUGUAGUAUACGAGGAGGAGGUUUAUCGAAUUUUCGGCGGAUGCCUCCAAA [A6G C8G U31A G32U] | – | < 1e-05 | – | – | –
4 | AUAAAGGCGCCAGAAGUACAGAAAUGUAGUUGACGAGGAAGAGGUUUAUUGAAUUUUCGGCGGAUGCCUGCAAA [A6G C16G G40A C50U C70G] | – | < 1e-05 | < 1e-05 | < 1e-05 | < 1e-05
5 | AUAAAAGCGCCAGAACUACAGAAAUGUAGUUGACGAGGAGGAGGUUUAUCGAAUUUUCGGCGGAUGCAUCCAAA [C68A] | < 1e-05 | 5.51e-05 ± 1.8e-05 | 0.000539 ± 0.00015 | 0.000102 ± 4.6e-05 | 0.000447 ± 7.5e-05
6 | AUAAAAGCGCCAGAACUACAGAAAUGUAGUUGACGAGGAGGAGGUUUAUCGAAUUUUCGGCGGAUGCGUCCAAA [C68G] | 1.18e-05 ± 2.8e-06 | – | 0.000523 ± 0.00014 | 9.11e-05 ± 1.8e-06 | 0.000473 ± 9.9e-05
7 | AUAAAGGCGCCAGAACUACAGAAAUGUAGUUGACGAGGACGAGGUUUAUGGAAUUUUCGGCGGAUGCCUCCAAA [A6G G40C C50G] | – | < 1e-05 | – | < 1e-05 | –
8 | AUAAACGCGCCCGAACUACAGAAAUGUAGUUGACGCGGAGGAAGUUUAUCUAAUUUUCGGCGGAUGCCUGCAAA [A6C A12C A36C G43A G51U C70G] | – | < 1e-05 | < 1e-05 | – | –
9 | AUAAAGGCGCCAGACCUACAGAAAUGUAGUUGACGAGGAGGAGGAUUAUCGAAUUUUCAGCGGAUGCCUCCAAA [A6G A15C U45A G59A] | – | < 1e-05 | < 1e-05 | < 1e-05 | –
10 | AUAAAGGCGCCAGAACUACAGAAAUGUAGUUGACGGGGAGGAGGUUUAUCGAAUUAUCGGCGGAUGCCUCCAAA [A6G A36G U56A] | – | < 1e-05 | < 1e-05 | < 1e-05 | –
11 | AUAAAGGCGCCAGAAGUACAGAAAUGUAGUUGACGAGAAGGAGGUUUAUCGAAUUUUCGGCGGAUGCCUCCAAA [A6G C16G G38A] | – | < 1e-05 | < 1e-05 | – | –
12 | AUAAAGCCGUCAGAACUACAGAAAUGUAGUUGACUAGGAUGAGGUUUAUCGAAUUUUCGACGGAUGCCUGCAAA [A6G G7C C10U G35U G40U G60A C70G] | – | < 1e-05 | < 1e-05 | < 1e-05 | –
13 | AUAAAUGCGCCAGCACUACAGAAAUGUAGUUGACGAGGAGGAGGUUUAUCAAAUUUUCGGCGGAUGCCUCCAAA [A6U A14C G51A] | – | < 1e-05 | < 1e-05 | – | –
14 | AUAAACGCGCCAGAACUACAGAAAUGUAGUUGACGGGGAGGAGGUUUAUUGAAUUUUCGGCGGAUGUCUCCAAA [A6C A36G C50U C67U] | – | < 1e-05 | – | < 1e-05 | –
15 | AUAAACGCGCCAGAACUACAGAAAUGUAGUUUACGAGGAGGAGGUUUAUCGAAUUUUCGGCGGGUGUCUCCAAA [A6C G32U A64G C67U] | – | < 1e-05 | < 1e-05 | < 1e-05 | –
16 | AUAAACGCGCCAGAACUACAGAAAUGUAGUUGACGAUGAGGAGGUUUAUUGAAUUUUCGCCGGAUGCCUCCAAA [A6C G37U C50U G60C] | – | < 1e-05 | < 1e-05 | – | –
17 | AUAAAGGCGCCAGAACUACAGAAAUGUAGUUGACGGGGAGGAGUUUUAUCGAAUUUUCGGUGGAUGCCUCCAAA [A6G A36G G44U C61U] | – | < 1e-05 | < 1e-05 | < 1e-05 | –
18 | AUAAAGGCGUCAGAACUACAGAAAUGUAGUUGACGAGGAGGAGGUUUAUCGAAUUUCCGGCGGAUGCCUCCAAA [A6G C10U U57C] | – | < 1e-05 | – | – | –
19 | AUAAAGGCGCCAGAACUACAGAAAUGUAGUUGACGAGGAGGAGGUUUAUCGAAUUUACGACGGAUGCCUCGAAA [A6G U57A G60A C71G] | – | < 1e-05 | < 1e-05 | < 1e-05 | –
20 | AUAAACGCGCCAGAACUACAGAAAUGUAGUUGACGAGGAGGAGGUUUAGCGAAUUUUCGGCAGGUGCCUCCAAA [A6C U49G G62A A64G] | – | < 1e-05 | < 1e-05 | < 1e-05 | –
21 | AUAAAGGCGCCAGAACUACAGAAAUGUAGUUUACGAGGAAGAGGUUUAUCGAAUUUUCGGGGGAUGCCUCCAAA [A6G G32U G40A C61G] | – | < 1e-05 | < 1e-05 | < 1e-05 | –
22 | UAAAAAGCGCCAGAACUACAGAAAUGUAGUUGACGAGGAGGAGGUUUAUCGAAUUUUCGGCGAAUGCCUCCAAA [A1U U2A G63A] | – | < 1e-05 | – | – | –
23 | AUAAACGUGGCUGAACUACAGAAAUGUAGUUGACGAGUAGGAGGUUUAUCGAAUUUUCGGCGGAUGCCUCCAAA [A6C C8U C10G A12U G38U] | – | < 1e-05 | < 1e-05 | < 1e-05 | –
24 | AUAAACGGGCCAGAACUACAGAAAUGUAGUUGACCAGGAGGAGGUUUAUCGAAUUUUUGGCGGAUGGCUCCAAA [A6C C8G G35C C58U C67G] | – | < 1e-05 | – | < 1e-05 | –
25 | AUAAACGCGCCGGAACUACAGAAAUGUAGUUGACGAGGAGGAGGUUUAUCGAAUUUUCGGCGGAUGCGUGCAAA [A6C A12G C68G C70G] | – | < 1e-05 | < 1e-05 | < 1e-05 | –
26 | CUAAAAGCGCCAGAACUACAGAAAUGUAGGUGACGAGGAGGAGGUUUAUCGAAUUUUCGGCGGAUGCCUCCAAA [A1C U30G] | – | 0.000834 ± 0.00021 | 0.00402 ± 0.0016 | 0.00723 ± 0.0018 | –
27 | AUAAAUGCGCCAGACCUACAGAAAUGUAGUUGACGAGGAGGAGGUUUAUCGAAUAUUCGGCGGAUUCCUCCAAA [A6U A15C U55A G66U] | – | < 1e-05 | < 1e-05 | < 1e-05 | –
28 | AUAAAGGCGCCAGGAUUACAGAAAUGUAGUUUACCAGGAGCAGGUUUAUAGAAUUUUCGGCGGAUGCCUCGAAA [A6G A14G C16U G32U G35C G41C C50A C71G] | – | < 1e-05 | – | < 1e-05 | –
29 | AUAAAGGCGCCAGAACUACAGAAAUGUAGGUGACGAGGAGGAGGUUUAUCGAAUUUUCUGCGGAUGCCUCCAAA [A6G U30G G59U] | – | < 1e-05 | < 1e-05 | < 1e-05 | –
